Series [1] deals with T1, LbCas12a-K595Y (Lachnospiraceae bacterium ND2006, K595Y). As to the kind of experiment: cleavage_in_vitro; PAM ACCC; NEB 2.1, 37C; wt TTTV benchmark 9.2.
The target in a further series is LbCas12a-D122H (Lachnospiraceae bacterium ND2006, D122H). As to the kind of experiment: cleavage_in_vitro; PAM TCCC; NEB 2.1, 37C.
Series [2] concerns the target T2, LbCas12a-D535N (Lachnospiraceae bacterium ND2006, D535N). As to the kind of experiment: cleavage_in_vitro; PAM TTTC; NEB 2.1, 37C.
The target in series [3] is T3, LbCas12a-K538W (Lachnospiraceae bacterium ND2006, K538W). As to the kind of experiment: cleavage_in_vitro; PAM TTTC; NEB 2.1, 37C.
Series [4] deals with T4, LbCas12a-E159K (Lachnospiraceae bacterium ND2006, E159K). The experiment in a line: cleavage_in_vitro; PAM TTCT; NEB 2.1, 37C.
Series [5] addresses T5, LbCas12a-K121R (Lachnospiraceae bacterium ND2006, K121R). The experiment in a line: cleavage_in_vitro; PAM TTCT; NEB 2.1, 37C.
The target of series [6] is T6, LbCas12a-G532H (Lachnospiraceae bacterium ND2006, G532H). The experiment in a line: cleavage_in_vitro; PAM TTCA; NEB 2.1, 37C.
Series [7] deals with T1, LbCas12a-K595Y. The experiment in a line: cleavage_in_vitro; PAM TTCG; NEB 2.1, 37C.
Series [8] has as its target T6, LbCas12a-G532H. As to the kind of experiment: cleavage_in_vitro; PAM CTTC; NEB 2.1, 37C.
Series [9] deals with T7, LbCas12a-T152R (Lachnospiraceae bacterium ND2006, T152R). The experiment in a line: cleavage_in_vitro; PAM CTTC; NEB 2.1, 37C.
Series [10] deals with T8, LbCas12a-D156Q (Lachnospiraceae bacterium ND2006, D156Q). The experiment in a line: cleavage_in_vitro; PAM CCTA; NEB 2.1, 37C.
The target of series [11] is T3, LbCas12a-K538W. As to the kind of experiment: cleavage_in_vitro; PAM TATC; NEB 2.1, 37C.
In series [12] the target is T3, LbCas12a-K538W. As to the kind of experiment: cleavage_in_vitro; PAM TATA; NEB 2.1, 37C.
In series [13] the target is T7, LbCas12a-T152R. The experiment in a line: cleavage_in_vitro; PAM GCCC; NEB 2.1, 37C.
In series [14] the target is T8, LbCas12a-D156Q. As to the kind of experiment: cleavage_in_vitro; PAM GTTC; NEB 2.1, 37C.
For series [15], the target named is T1, LbCas12a-K595Y. The experiment in a line: cleavage_in_vitro; PAM GCGC; NEB 2.1, 37C.
Series [16] deals with T9, LbCas12a-K595W (Lachnospiraceae bacterium ND2006, K595W). The experiment in a line: cleavage_in_vitro; PAM ACGG; NEB 2.1, 37C.
Series [17] has as its target T7, LbCas12a-T152R. The experiment in a line: cleavage_in_vitro; PAM CCTG; NEB 2.1, 37C.
The target of series [18] is T5, LbCas12a-K121R. The experiment in a line: cleavage_in_vitro; PAM CCTG; NEB 2.1, 37C.
The target of series [19] is T9, LbCas12a-K595W. As to the kind of experiment: cleavage_in_vitro; PAM CCCC; NEB 2.1, 37C.
Series [20] addresses T4, LbCas12a-E159K. The experiment in a line: cleavage_in_vitro; PAM CCCC; NEB 2.1, 37C.
The target in series [21] is T2, LbCas12a-D535N. The experiment in a line: cleavage_in_vitro; PAM TTGC; NEB 2.1, 37C.

Data on 17 molecules can be found in patent publication US20210115421 (published 2021).

B1: PAMDA protospacer 1 crRNA ; protospacer 1 with ACCC PAM (ssRNA ; dsDNA)
RNA: AAUUUCUACUAAGUGUAGAUGGAAUCCCUUCUGCAGCACCUGG
DNA 1: ACCCGGAATCCCTTCTGCAGCACCTGG
DNA 2: CCAGGTGCTGCAGAAGGGATTCCGGGT
B1 returned an activity in the series with LbCas12a-K595Y [1] of 18.7 fold depletion.

B2: PAMDA protospacer 1 crRNA ; protospacer 1 with TCCC PAM (ssRNA ; dsDNA)
RNA: AAUUUCUACUAAGUGUAGAUGGAAUCCCUUCUGCAGCACCUGG
DNA 1: TCCCGGAATCCCTTCTGCAGCACCTGG
DNA 2: CCAGGTGCTGCAGAAGGGATTCCGGGA
As to B2, the activity with LbCas12a-D122H worked out at 18.8 fold depletion.

B3: PAMDA protospacer 1 crRNA ; protospacer 1 with TTTC PAM (ssRNA ; dsDNA)
RNA: AAUUUCUACUAAGUGUAGAUGGAAUCCCUUCUGCAGCACCUGG
DNA 1: TTTCGGAATCCCTTCTGCAGCACCTGG
DNA 2: CCAGGTGCTGCAGAAGGGATTCCGAAA
For the molecule B3, the activity with LbCas12a-D535N [2] is 10.5 fold depletion; with LbCas12a-K538W [3], 11.7 fold depletion.

B4: PAMDA protospacer 1 crRNA ; protospacer 1 with TTCT PAM (ssRNA ; dsDNA)
RNA: AAUUUCUACUAAGUGUAGAUGGAAUCCCUUCUGCAGCACCUGG
DNA 1: TTCTGGAATCCCTTCTGCAGCACCTGG
DNA 2: CCAGGTGCTGCAGAAGGGATTCCAGAA
Turning to B4, the activity in the series with LbCas12a-E159K [4] was 12.7 fold depletion; with LbCas12a-K121R [5], 14.4 fold depletion.

B5: PAMDA protospacer 1 crRNA ; protospacer 1 with TTCA PAM (ssRNA ; dsDNA)
RNA: AAUUUCUACUAAGUGUAGAUGGAAUCCCUUCUGCAGCACCUGG
DNA 1: TTCAGGAATCCCTTCTGCAGCACCTGG
DNA 2: CCAGGTGCTGCAGAAGGGATTCCTGAA
In the series with LbCas12a-G532H [6], B5 had an activity of 16.2 fold depletion.

B6: PAMDA protospacer 1 crRNA ; protospacer 1 with TTCG PAM (ssRNA ; dsDNA)
RNA: AAUUUCUACUAAGUGUAGAUGGAAUCCCUUCUGCAGCACCUGG
DNA 1: TTCGGGAATCCCTTCTGCAGCACCTGG
DNA 2: CCAGGTGCTGCAGAAGGGATTCCCGAA
Turning to B6, the activity in the series with LbCas12a-K595Y [7] is 17.8 fold depletion.

B7: PAMDA protospacer 1 crRNA ; protospacer 1 with CTTC PAM (ssRNA ; dsDNA)
RNA: AAUUUCUACUAAGUGUAGAUGGAAUCCCUUCUGCAGCACCUGG
DNA 1: CTTCGGAATCCCTTCTGCAGCACCTGG
DNA 2: CCAGGTGCTGCAGAAGGGATTCCGAAG
B7: the activity with LbCas12a-G532H [8] turned out to be 15.1 fold depletion; with LbCas12a-T152R [9], 16.1 fold depletion.

B8: PAMDA protospacer 1 crRNA ; protospacer 1 with CCTA PAM (ssRNA ; dsDNA)
RNA: AAUUUCUACUAAGUGUAGAUGGAAUCCCUUCUGCAGCACCUGG
DNA 1: CCTAGGAATCCCTTCTGCAGCACCTGG
DNA 2: CCAGGTGCTGCAGAAGGGATTCCTAGG
B8: in the series with LbCas12a-D156Q [10], the activity turned out to be 13.4 fold depletion.

B9: PAMDA protospacer 1 crRNA ; protospacer 1 with TATC PAM (ssRNA ; dsDNA)
RNA: AAUUUCUACUAAGUGUAGAUGGAAUCCCUUCUGCAGCACCUGG
DNA 1: TATCGGAATCCCTTCTGCAGCACCTGG
DNA 2: CCAGGTGCTGCAGAAGGGATTCCGATA
As for B9, the activity in the series with LbCas12a-K538W [11] was 9.66 fold depletion.

B10: PAMDA protospacer 1 crRNA ; protospacer 1 with TATA PAM (ssRNA ; dsDNA)
RNA: AAUUUCUACUAAGUGUAGAUGGAAUCCCUUCUGCAGCACCUGG
DNA 1: TATAGGAATCCCTTCTGCAGCACCTGG
DNA 2: CCAGGTGCTGCAGAAGGGATTCCTATA
In the case of B10, the activity with LbCas12a-K538W [12] is 10.4 fold depletion.

B11: PAMDA protospacer 1 crRNA ; protospacer 1 with GCCC PAM (ssRNA ; dsDNA)
RNA: AAUUUCUACUAAGUGUAGAUGGAAUCCCUUCUGCAGCACCUGG
DNA 1: GCCCGGAATCCCTTCTGCAGCACCTGG
DNA 2: CCAGGTGCTGCAGAAGGGATTCCGGGC
As for B11, in the series with LbCas12a-T152R [13], the activity worked out at 13 fold depletion.

B12: PAMDA protospacer 1 crRNA ; protospacer 1 with GTTC PAM (ssRNA ; dsDNA)
RNA: AAUUUCUACUAAGUGUAGAUGGAAUCCCUUCUGCAGCACCUGG
DNA 1: GTTCGGAATCCCTTCTGCAGCACCTGG
DNA 2: CCAGGTGCTGCAGAAGGGATTCCGAAC
B12 showed an activity with LbCas12a-D156Q [14] of 15.6 fold depletion.

B13: PAMDA protospacer 1 crRNA ; protospacer 1 with GCGC PAM (ssRNA ; dsDNA)
RNA: AAUUUCUACUAAGUGUAGAUGGAAUCCCUUCUGCAGCACCUGG
DNA 1: GCGCGGAATCCCTTCTGCAGCACCTGG
DNA 2: CCAGGTGCTGCAGAAGGGATTCCGCGC
As to B13, the activity with LbCas12a-K595Y [15] is 17.5 fold depletion.

B14: PAMDA protospacer 1 crRNA ; protospacer 1 with ACGG PAM (ssRNA ; dsDNA)
RNA: AAUUUCUACUAAGUGUAGAUGGAAUCCCUUCUGCAGCACCUGG
DNA 1: ACGGGGAATCCCTTCTGCAGCACCTGG
DNA 2: CCAGGTGCTGCAGAAGGGATTCCCCGT
B14 registered an activity with LbCas12a-K595W [16] of 11.5 fold depletion.

B15: PAMDA protospacer 1 crRNA ; protospacer 1 with CCTG PAM (ssRNA ; dsDNA)
RNA: AAUUUCUACUAAGUGUAGAUGGAAUCCCUUCUGCAGCACCUGG
DNA 1: CCTGGGAATCCCTTCTGCAGCACCTGG
DNA 2: CCAGGTGCTGCAGAAGGGATTCCCAGG
For the molecule B15, the activity worked out at 14.8 fold depletion in the series with LbCas12a-T152R [17] and 13 fold depletion with LbCas12a-K121R [18].

B16: PAMDA protospacer 1 crRNA ; protospacer 1 with CCCC PAM (ssRNA ; dsDNA)
RNA: AAUUUCUACUAAGUGUAGAUGGAAUCCCUUCUGCAGCACCUGG
DNA 1: CCCCGGAATCCCTTCTGCAGCACCTGG
DNA 2: CCAGGTGCTGCAGAAGGGATTCCGGGG
For the molecule B16, the activity with LbCas12a-K595W [19] worked out at 11.9 fold depletion; with LbCas12a-E159K [20], 12.3 fold depletion.

B17: PAMDA protospacer 1 crRNA ; protospacer 1 with TTGC PAM (ssRNA ; dsDNA)
RNA: AAUUUCUACUAAGUGUAGAUGGAAUCCCUUCUGCAGCACCUGG
DNA 1: TTGCGGAATCCCTTCTGCAGCACCTGG
DNA 2: CCAGGTGCTGCAGAAGGGATTCCGCAA
With B17, the activity with LbCas12a-D535N [21] was 10.9 fold depletion.
